Measurements taken from a protein production outcome set (Wang et al. 2014).

Assay: label from the status in PepcDB records

Sequence	protein production
MTSRFMLIFAAISGFIFVALGAFGAHVLSKTMGGVEMGWIQTGLEYQAFHTLAILGLAVAMQRRISIWFYWSSVFLALGTVLFSGSLYCLALSHLRLWAFVTPVGGVSFLAGWALMLVGAIRLKRKGVSHE	failed
MTSSLQPDASRDAQREQVIAQLQQVIQRVPEQSEFTNTRRYQLLGPLFTLISLGMLAWGIQQGKTGMLLCGLFLSALFALVTWQHRHAGQHAFMRLTRRQLFVDSLSAPVNLTDVVDVHVKDEGLLTLQQLTLRPGSPLPTHRPVRQVFGNQAMALKSPEPHIRIHSAGLMSGGRKLAIDDIAALLDAYCQAANAQQQLDELQGRG	failed
MTSSPELARAVAATLARHVTDVVICPGSRNSPLSLELIARDDIRVHTRIDERSAAFLALGLARSSKRHVAVVTTSGTAVANCAPAMIEAAYSHTPLIMVSADRPERLHGTGANQTIEQRGIFNVVDTDHVVDITDLNSISFARNVIHINVALDVPLVDVLPEVGDPVERVREVIEV	failed
MTSSTETTATTPQVAVNDIGNEEAFLAAIDETIKYFNDGDIVDGVIVKVDRDEVLLDIGYKTEGVIPSRELSIKHDVDPNEVVAVGDEIEALVLQKEDKEGRLILSKKRAQYERAWGTIEKIKEEDGIVTGTVIEVVKGGLILDIGLRGFLPASLVEMRRVRDLQPYVGKELEAKIIELDKNRNNVVLSRRAWLEQTQSEVRQTFLTTLQKGQVRSGVVSSIVNFGAFVDLGGVDGLVHVSELSWKHIDHPSEVVEVGQEVTVEVLDVDMDRERVSLSLKATQEDPWQQFARTHQIGQVVPGKVTKLVPFGAFVRVDEGIEGLVHISELAERHVEIPEQVVQVNDEIFVKVIDIDLERRRISLSLKQANEAFGADPSTVEFDPTLYGMAASYDDQGNYIYPEGFDPETNDWLEGYETQREAWETQYAEAQTRFEQHQAQVIKSREADEKAAAEGVDTAGAAPAASGGGGGGSYSSEGGDNSGALASDEALAALREKLAGGQS	failed
MTSTFNPRECKLSKQEGQNYGFFLRIEKDTEGHLVRVVEKCSPAEKAGLQDGDRVLRINGVFVDKEEHMQVVDLVRKSGNSVTLLVLDGDSYEKAVKTRVDLKELGQSQKEQGLSDNILSPVMNGGVQTWTQPRLCYLVKEGGSYGFSLKTVQGKKGVYMTDITPQGVAMRAGVLADDHLIEVNGENVEDASHEEVVEKVKKSGSRVMFLLVDKETDKRHVEQKIQFKRETASLKLLPHQPRIVEMKKGSNGYGFYLRAGSEQKGQIIKDIDSGSPAEEAGLKNNDLVVAVNGESVETLDHDSVVEMIRKGGDQTSLLVVDKETDNMYRLAHFSPFLYYQSQELPNGSVKEAPAPTPTSLEVSSPPDTTEEVDHKPKLCRLAKGENGYGFHLNAIRGLPGSFIKEVQKGGPADLAGLEDEDVIIEVNGVNVLDEPYEKVVDRIQSSGKNVTLLVCGKKAYDYFQAKKIPIVSSLADPLDTPPDSKEGIVVESNHDSHMAKERAHSTASHSSSNSEDTEM	failed
MTSTVEFINRWQRIALLSQSLLELAQRGEWDLLLQQEVSYLQRIETVMEKQTPPGITRSIQDMVAGYIKQTLDNEQLLKGLLQQRLDELSSLIGQSTRQKSLNNAYGRLSGMLLVPDASGAS	failed
MTSYIILKHLHMTTAYLTITLFALRLLLDAVGRPGWRQTPLRFIPHINDTILLVAAIALVFVAGYASAMPGWLITKIVLLFGYIIAGVFALKTTVGKPARIVAAVLALVQVSAIFHLAMAKPF	failed
MTTAKRDTYTPETLLSVAVQVFIERGYDGTSMEHLSKAAGISKSSIYHHVTGKEELLRRAVSRALDELFGILDEEHARVGTAAERLEYVVRRMVEVLMAELPYVTLLLRVRGNTGTERWALERRREFDHRVAALLKDAAAEGDVRADVEVRLATRLVFGMINSIVEWYRPEGPDGRSDASGASGVSGAGEREVVDAVARLVFGGLRKAS	not failed
